Source: article PMC12037675, “Design of self-emulsifying oral delivery systems for semaglutide: reverse micelles versus hydrophobic ion pairs” (Drug Delivery and Translational Research, 2024)

Assays:
[1] = Solubility of (poly)peptides in lipid phases via reverse micelles (dry addition) or HIP; type: physicochemical
Protocol: (Poly)peptide loaded RM were prepared utilizing 200 mM of surfactants dissolved within the oily phase (GML/C8 (1:4; m/m), GMCC/C8 (1:4; m/m) and GMCC/GML (1:4; m/m)) in order to guarantee formation of reverse micelles. Loaded reverse micelles were prepared by the addition of semaglutide to surfactant-oil solutions (200 mM ELA or 200 mM DOC) resulting in a final concentration of 50 mg/mL. The mixtures were vortexed and treated with ultrasound for 30 min before incubation at 1200 rpm at room temperature (RT). Formation of reverse micelles by dry addition method, describing the direct addition of the API in powdered form to lipophilic solvents without use of any additional solvents, was investigated for semaglutide and three further (poly)peptides for comparison. In that regard, semaglutide with a molecular weight of 4.1 kDa was compared to colistin representing the smallest investigated peptide (1.1 kDa). In addition, two larger polypeptides, lysozyme (LYS, 14.4 kDa) and bovine serum albumin (BSA, 66.4 kDa) were investigated. At predetermined time points the dissolved (poly)peptide in supernatant was quantified by HPLC after centrifugation at 12,045 RCF for 10 min.

Caco-2 monolayer = experiment: Caco-2 permeation study; type: in vitro ADME, human; settings: Caco-2 on 24-well Transwell, 21 days, apical to basolateral, HBS pH 6.8, SEDDS 0.05% (v/v), 6 h; ELISA; means n = 4
Protocol: The ability of native semaglutide as well as semaglutide-RM loaded SEDDS and SEDDS containing HIP to permeate the intestinal epithelium was investigated using Caco-2 cells. Caco-2 cell line was seeded on a 24-well Transwell filters plate at a cell density of 1.25 × 10^5 cells/cm^2. Cells were cultivated for 21 days replacing the media every second day. On the day of the experiment, cells were washed twice using sterile HBS buffer pH 6.8. To start the experiment after the equilibration period, the buffer was removed and replaced with 100 µL of either native semaglutide solution in sterile HBS buffer pH 6.8 or semaglutide-RMs loaded SEDDS diluted to a concentration of 0.05% (v/v) with sterile HBS buffer pH 6.8. Sterile HBS buffer (500 µL) was added to basolateral side. At predetermined time points, 100 µL were withdrawn from basolateral chambers and replaced with prewarmed HBS. The amount of semaglutide in the basolateral chamber was measured through ELISA (KRIBIOLISA™ Semaglutide ELISA, Krishgen BioSystems, US). Transepithelial electric resistance (TEER) in a range of 1200–3300 ohm/cm^2 were measured ensuring integrity of cell monolayers (Evom2, World Precision Instrument Inc., USA).

[2] = Hydrophobic ion pairing with ethyl lauroyl arginate: precipitation efficiency; type: physicochemical; settings: 1:1 charge ratio (peptide:surfactant), peptide in 0.001 M NaOH, 2 h, 400 rpm, ambient temperature; mean ± SD
Protocol: Hydrophobic ion pairs were formed in order to increase lipophilicity of semaglutide according to previous studies. The peptide was dissolved in 0.001 M NaOH in a concentration of 10 mg/ml to obtain a negative net charge. Ethyl lauroyl arginate, as a cationic counter ion was dissolved in demineralized water. Equal amounts (500 µL: 500 µL) of peptide and surfactant solution were combined corresponding to a charge ratio of 1:1 (peptide:surfactant). Samples were agitated at 400 rpm for 2 h on a thermomixer (Eppendorf, Austria) at ambient temperature. Precipitates were separated from the solution by centrifugation at 12,045 RCF for 10 min (Minispin, Eppendorf, Austria). Precipitation efficiency was determined according to the following equation:1 [drawing 1]

[3] = cited from earlier work
log D lipid phase/water = type: physicochemical
Protocol: Retention of drug within lipid phase after emulsification is crucial for the active ingredient to reach the absorption membrane in intact form. Thus, high log Dlipid phase/water values are substantial for lipophilic complexes of semaglutide. In brief, 200 µL of peptide loaded RM or HIP complexes corresponding to 2 mg of semaglutide in the lipid phases GML/C8 (1:4; m/m), […] were underlaid with 200 µL of demineralized water and incubated at 300 rpm on a thermomixer for 24 h. In the following samples were centrifuged at 12,045 RCF for 10 min and 100 µL aliquots from both phases were withdrawn and the amount of peptide was quantified by HPLC. The distribution coefficient was calculated according to Eq. 3:3 [drawing 5]
where [drawing 6] corresponds to peptide concentration in the lipophilic phase after incubation and [drawing 7] to peptide concentration in the water phase after incubation. Log Dlipid phase/water values for reference (poly)peptides were determined in the same manner.

Question: With `CC[C@H](C)[C@H](NC(=O)[C@H](Cc1ccccc1)NC(=O)[C@H](CCC(=O)O)NC(=O)[C@H](CCCCNC(=O)COCCOCCNC(=O)COCCOCCNC(=O)CC[C@H](NC(=O)CCCCCCCCCCCCCCCCC(=O)O)C(=O)O)NC(=O)[C@H](C)NC(=O)[C@H](C)NC(=O)[C@H](CCC(N)=O)NC(=O)CNC(=O)[C@H](CCC(=O)O)NC(=O)[C@H](CC(C)C)NC(=O)[C@H](Cc1ccc(O)cc1)NC(=O)[C@H](CO)NC(=O)[C@H](CO)NC(=O)[C@@H](NC(=O)[C@H](CC(=O)O)NC(=O)[C@H](CO)NC(=O)[C@@H](NC(=O)[C@H](Cc1ccccc1)NC(=O)[C@@H](NC(=O)CNC(=O)[C@H](CCC(=O)O)NC(=O)C(C)(C)NC(=O)[C@@H](N)Cc1cnc[nH]1)[C@@H](C)O)[C@@H](C)O)C(C)C)C(=O)N[C@@H](C)C(=O)N[C@@H](Cc1c[nH]c2ccccc12)C(=O)N[C@@H](CC(C)C)C(=O)N[C@H](C(=O)N[C@@H](CCCNC(=N)N)C(=O)NCC(=O)N[C@@H](CCCNC(=N)N)C(=O)NCC(=O)O)C(C)C` [semaglutide] as the compound, how does the “Maximum solubility within reverse micelles” value ([1]; after 48 h to 72 h, dry addition, 200 mM ELA or DOC, 50 mg/mL added, RT, HPLC, means n ≥ 3) read?
Answer: ~100%

Question: And the “Solubility in RM in comparison to HIP” value ([1]; best performing lipid phase glycerol monocaprylocaprate:caprylic acid 1:4 (m/m))?
Answer: at least 2 fold

Question: What about the “Apparent permeability coefficient (Papp)” value (Caco-2 monolayer) of the same compound?
Answer: significantly lower Papp value

Question: Which “Precipitation efficiency of HIP with ethyl lauroyl arginate” value [2] does the source give for “bovine serum albumin [66.4 kDa reference polypeptide]” here?
Answer: 39.1 ± 2.2%

Question: What about the “Isoelectric point (IEP)” value [3] of the same compound?
Answer: 5.0

Question: What about the “Solubility within reverse micelles” value ([1]; even after prolonged incubation time, dry addition, 200 mM surfactant, RT, HPLC) of the same compound?
Answer: below 1 mg/mL

Question: For colistin [1.1 kDa reference peptide], which “Change in lipophilicity (log D lipid phase/water) in RM” value (log D lipid phase/water; RM formed with docusate) is on record?
Answer: enhanced lipophilicity

Question: What about the “Change in lipophilicity (log D lipid phase/water) in RM” value (log D lipid phase/water; RM formed with ethyl lauroyl arginate) of the same compound?
Answer: almost no increase in lipophilicity

Question: And the “Isoelectric point (IEP)” value [3]?
Answer: 5.0

Question: What does the source list for “lysozyme [14.4 kDa reference polypeptide]”?
Answer: Precipitation efficiency of HIP with ethyl lauroyl arginate [2]: 0.0 ± 1.7%; Improvement in lipophilicity in RM compared to the native peptide (log D lipid phase/water; log D lipid phase/water, RM): up to 600 fold; Isoelectric point (IEP) [3]: 11.0; Solubility in RM, times lower compared to semaglutide ([1]; reverse micelles, dry addition, pronounced increase only after 72 h): about 10 times
